Measurements: patent US5089479A, “Adhesion of Mycoplasma pneumoniae and Mycoplasma hominus to sulfatide” (priority 1988, dated 1992)

How the values were obtained:
[1] = test system: monoclonal antibody My-28; assay: Binding of monoclonal antibody My-28 to immobilized proteins after neuraminidase; settings: neuraminidase-treated, adsorbed on plastic
Experimental: Binding of monoclonal antibody My-28 to the immobilized proteins before or after digestion with neuraminidase was determined using a 1:1000 dilution of ascites fluid in tris-BSA. After incubation for two hours at room temperature, the wells were washed three times with tris-BSA. Bound antibody was detected using goat anti-mouse IgM labelled with ^125 I by the Iodogen method.

M. pneumoniae = M. pneumoniae adhesion to immobilized glycoproteins adsorbed on plastic; assay type: binding, Mycoplasma pneumoniae strain M129; settings: for M. pneumoniae adhesion to immobilized glycoprotein (in words): adsorbed on plastic
Experimental: Glycoproteins dissolved in 0.01 M sodium phosphate buffer, pH 7.4, containing 150 mM NaCl, 1 mM CaCl2, and 0.01% NaN3 were adsorbed onto plastic polyvinylchloride […] microtiter plates by incubation for 16 hours at 4° C. The unbound proteins were removed, and the wells were filled with tris-BSA and incubated for 30 minutes at room temperature. The wells were rinsed with RPMI1640 containing 25 mM HEPES, pH 7.3, and 1% bovine serum albumin. M. pneumoniae strain M129 labelled with [^3 H]-palmitate were dispersed in RPMI-BSA by passing four times through a 26 gauge needle, and 50 μl of the suspension was applied to the wells. After incubation for 60 minutes at 37° C., the wells were washed five times with saline and the labelled M. pneumoniae bound to the proteins were quantified by scintillation counting in Aquasol. […]

[2] = test system: erythrocyte adhesion to M. pneumoniae; settings: relative to fetuin; Loomes et al.; cited from earlier work

B1: Human type MM glycophorin: glycoprotein (protein, UniProt P02724 20-150, looked up)
Glycophorin-A: LSTTEVAMHTSTSSSVTKSYISSQTNDTHKRDTYAATPRAHEVSEISVRTVYPPEEETGERVQLAHHFSEPEITLIIFGVMAGVIGTILLISYGIRRLIKKSPSDVKPLPSPDTDVPLSSVEIENPETSDQ
modifications: MM blood type
notes: glycoprotein
In the case of B1, the “My-28 antibody binding after neuraminidase digestion (in words)” value [1] is reported as “about ten-fold less”, the “M. pneumoniae adhesion to immobilized glycoprotein (in words)” value (M. pneumoniae; listed as Glycophorin) is reported as “weakly active” and the “M. pneumoniae adhesion to immobilized glycoprotein (in words)” value (M. pneumoniae; listed as glycophorin) is reported as “neither protein binds M. pneumoniae well”. The Relative binding activity (M. pneumoniae; relative to fetuin = 1.0, from amount for half maximal binding, mean of 2 or 3 experiments) was 0.06 and the “inhibition of erythrocyte adhesion to M. pneumoniae (in words)” value [2] was “inhibit erythrocyte adhesion to M. pneumoniae better than fetuin”.
